Patent US20130347134A1, “TRANSGENIC VON WILLEBRAND FACTOR ANIMALS AND USES THEREOF” (priority 2012, published 2013)

Tested on: murine platelets
Experiment: In vitro flow chamber, mouse platelets on recombinant VWF-A1, 800 s^-1
Type: cell-based
Details: wall shear rate 800 s^−1
Protocol: The protein was subsequently used in a series of in vitro flow chamber assays to assess function. Washed human or murine platelets (5×10^7/ml) were infused through a parallel plate flow chamber containing glass cover slips coated with either human VWF-A1 or mouse VWF-A1 protein (100 μg/ml final concentration) at a shear rate of 800 s^−1. After 5 minutes of continuous flow, adherent platelets were quantified.
In the case of the latter, the murine A1 fragment was inserted into pET-11b (Stratagene) and purified as previously described (Miura et al., 2000).
Support for this hypothesis is provided by mutagenesis studies. By analyzing the data obtained from the crystal structure of the murine VWF-A1 domain, the inventors have identified several residues that may participate in interactions with GPIb α (FIG. 15C). Residue 1326 was initially chosen for study and was mutated to the corresponding amino acid at the identical location in its human counterpart (from Arg to His). Subsequently, the ability of murine and human platelets to interact with this mutant protein substrate was evaluated at a wall shear rate of 800 s^−1. Incorporation of a histidine for arginine at position 1326 in murine VWF-A1 reduced murine platelet adhesion by about 5-fold and increased translocation velocities of cells by about 7-fold as compared to the WT mouse protein (FIGS. 13 and 16). […]

B1: His-tag M VWF-A1: recombinant murine VWF-A1 with N-terminus His tag (protein)
chain: QEPGGLVAPPTDAPVSSTTPYVEDTPEPPLHNFYCSKLLDLVFLLDGSSMLSEAEFEVLKAFVVGMMERLHISQKRIRVAVVEYHDGSRAYLELKARKRPSELRRITSQIKYTGSQVASTSEVLKYTLFQIFGKIDRPEASHITLLLTASQEPPRMARNLVRYVQGLKKKKVIVIPVGIGPHASLKQIRLIEKQAPENKAFLLSGVDELEQRRDEIVSYLCDLAPEAPAPTQPP
platelets that adhered to and translocated: 449±53 platelets/mm^2
